Biological target: Ancylostoma ceylanicum phytochelatin synthase (Ancylostoma ceylanicum)
Assay: SEC

For “Ancylostoma ceylanicum phytochelatin synthase (enzyme)”, the stoichiometry N was 2.

From paper PMC3823645
